As a reminder, the Kd is the constant that tells how readily two partners part at equilibrium. As a reminder, the koff is the rate constant with which the complex falls apart. A lower koff goes with a long-lived complex. By kon is commonly meant the second-order rate constant of association. A high value points to faster complex formation.

For the experiment, the target named is T1, biotinylated A93D-PNT domain (ETV6 residues 43-135, A93D, with Avitag) (human, UniProt P41212 43-135, A93D, biotin on the Avitag (~50 to 95% biotinylated)).
T1 construct: ETV6, human, residues 43-135; made from the V112E construct by introducing A93D and E112V; also called biotinylated A93D-PNT domain ligand; A93D-PNT domain ligand; source: E. coli BL21 (λDE3) co-transformed with pET21a-BirA, purified (Ni-NTA, thrombin cleavage); not shown: His6, N-terminal, cleaved; Avitag, N-terminal, kept
T1 sequence (looked up): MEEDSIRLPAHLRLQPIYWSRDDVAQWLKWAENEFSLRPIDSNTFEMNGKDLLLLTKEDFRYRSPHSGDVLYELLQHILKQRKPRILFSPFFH
Description: SPR; biotinylated A93D-PNT domain ligand captured on streptavidin Sensor Chip SA, PNT domain analytes flowed; Biacore X100, 25 °C, HBS-EP+ (10 mM HEPES, 150 mM NaCl, 3 mM EDTA, 0.05% v/v Tween-20, pH 7.4); analyte 0.2-60 nM, re-run at 20-6000 nM if KD > 60 nM. Conditions: both partners purified. Summed up: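 Biotinylated ETV6 PNT domain (residues 43-135, Avitag-biotinylated) was diluted to 50 μg/ml in HBS-EP+ and captured on a streptavidin Sensor Chip SA in a Biacore X100 at 25 °C. PNT domain analytes were flowed at 0.2, 2, 20, 40 and 60 nM, or re-run at 20-6000 nM when binding was weaker. Chips were regenerated with 0.2% SDS for 30 s. Association and dissociation rate constants and equilibrium dissociation constant came from the Biacore kinetics/affinity software wizard.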
(SPR reads the build-up and loss of mass on a sensor chip optically.)

B1: Y104A-V112E-PNT domain (domain or fragment, human, UniProt P41212 40-125, looked up)
chain: ALRMEEDSIRLPAHLRLQPIYWSRDDVAQWLKWAENEFSLRPIDSNTFEMNGKALLLLTKEDFRARSPHSGDELYELLQHILKQRK
notes: ETV6 PNT domain, human; source: E. coli BL21 (λDE3), purified (Ni-NTA, thrombin cleavage); not shown: His6, N-terminal, cleaved
For B1, the dissociation constant Kd was found to be 21 nM, the koff turned out to be 0.015 s⁻¹ and the kon was found to be 730000 M⁻¹ s⁻¹.

For the origin of these results see PMC7949025, “Biophysical characterization of the ETV6 PNT domain polymerization interfaces” (The Journal of Biological Chemistry, 2021).
